Test: ET-1 degradation rate in mouse blood and tissues (ELISA)
Assay type: in vivo
Details: tail vein injection, at least 5 mice
Protocol: To determine the ET-1 degradation rate we injected mice in the tail vein with an ET-1 solution in saline at a dose of […]. Fifteen minutes after injection mice were sacrificed and their lungs and aorta as well as blood were collected to measure the concentration of ET-1 by ELISA. Endogenous levels of ET-1 were measured in the animals injected with saline.
Figure 6 Mice with combined CathA/Scpep1 deficiency have reduced ET-1 degradation rate. Blood plasma, lungs and aorta were collected from WT, Scpep1 ^−/−, CathA^S190A and DD mice 15 min post an intravenous injection of saline or ET-1 in saline (10 nmol/kg BW). The levels of ET-1 peptide were measured by ELISA in lung extracts (A), aorta extracts (B), and in blood plasma extracts (C) from mice injected with ET-1 and blood plasma extracts from mice injected with saline (D). Data are expressed as mean values (±S.E). At least 5 mice were studied for each genotype. * p<0.05 in Welch's modification of two-tailed unpaired t-test. […]
For peptide extraction, tissues (200 mg) were homogenized in 1 mol/L CH3COOH/20 mM HCl. […] Quantitative assay of ET-1 was performed with an ELISA kit (Enzo Life Sciences ADI-900-020A) as described by the manufacturer.

## endothelin-1 [ET-1]
Lungs and aorta of CathA-deficient mice
  ET-1 concentration 15 min after injection versus WT or Scpep1-deficient animals: higher
Tissues or plasma of DD mice, dose printed 0.1 nmol/kg BW
  ET-1 concentration 15 min after injection versus WT, CathA-deficient or Scpep1-deficient mice: significantly higher

— publication PMC3937211, “Serine Carboxypeptidase SCPEP1 and Cathepsin A Play Complementary Roles in Regulation of Vasoconstriction via Inactivation of Endothelin-1” (PLoS Genetics, 2014)
